Data as given in the supplement of paper PMC5998384.

Tests used:
HeLa Kyoto [1] = experiment: solubility in G1/S (NP-40 vs SDS abundance) (log2 ratio); higher = more soluble; details: cell cycle stage: G1/S
HeLa Kyoto [2] = experiment: melting temperature (median over replicates), in situ; higher = more thermally stable
HeLa Kyoto [3] = experiment: solubility change mitosis vs G1/S (difference of NP-40 vs SDS log2 ratios) (log2 ratio difference); higher = more soluble in mitosis
HeLa Kyoto [4] = experiment: thermal stability score vs G1/S (z-score of summed log2 fold changes over temperatures); higher = more thermally stable than in G1/S
[5] = cell cycle stage: early G1 (4.5 h after nocodazole release)
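Wherever melting temperature (median over replicates), in situ is given: HeLa Kyoto cells synchronized by double thymidine or nocodazole block, proteins quantified by TMT10plex mass spectrometry, three independent biological replicates.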
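Wherever solubility change mitosis vs G1/S (difference of NP-40 vs SDS log2 ratios) is given: synchronized HeLa Kyoto cells (double thymidine block for G1/S, nocodazole release for mitosis), protein amounts in NP-40 versus SDS lysates quantified by mass spectrometry, three biological replicates.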
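Wherever solubility in G1/S (NP-40 vs SDS abundance) is given: HeLa Kyoto cells arrested at G1/S by double thymidine block, proteins quantified by TMT10plex mass spectrometry in mild NP-40 versus SDS extracts, three biological replicates.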
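Wherever thermal stability score vs G1/S (z-score of summed log2 fold changes over temperatures) is given: synchronized HeLa Kyoto cells, proteins quantified by TMT10plex mass spectrometry, three biological replicates, mitosis taken 0.5 h after nocodazole release, G1/S directly after double thymidine block.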

With “MPRARKGNTLRKGGQRRGGGARSSAQADSGSSDDEAASEARSTASECPSLLSTTAEDSLGGDVVDEQGQQEDLEEKLKEYVDCLTDKSAKTRQGALESLRLALASRLLPDFLLERRLTLADALEKCLKKGKGEEQALAAAVLGLLCVQLGPGPKGEELFHSLQPLLVSVLSDSTASPAARLHCASALGLGCYVAAADIQDLVSCLACLESVFSRFYGLGGSSTSPVVPASLHGLLSAALQAWALLLTICPSTQISHILDRQLPRLPQLLSSESVNLRIAAGETIALLFELARDLEEEFVYEDMEALCSVLRTLATDSNKYRAKADRRRQRSTFRAVLHSVEGGECEEEIVRFGFEVLYMDSWARHRIYAAFKEVLGSGMHHHLQNNELLRDIFGLGPVLLLDATALKACKVPRFEKHLYNAAAFKARTKARSRVRDKRADIL [IFRD2]” the “solubility in G1/S (log2)” value (HeLa Kyoto [1]) was -0.734, the melting temperature (HeLa Kyoto [2]; cell cycle stage: G1/S) was 56.3 °C and the melting temperature (HeLa Kyoto [2]; cell cycle stage: mitosis) was 54.5 °C. For the same sequence, the “solubility change mitosis (log2)” value (HeLa Kyoto [3]) was 0.211, the thermal stability score (HeLa Kyoto [4]; [5]) was -2.6 and the thermal stability score (HeLa Kyoto [4]; cell cycle stage: mitosis) was -1.01.

For “MPRDNMASLIQRIARQACLTFRGSGGGRGASDRDAASGPEAPMQPGFPENLSKLKSLLTQLRAEDLNIAPRKATLQPLPPNLPPVTYMHIYETDGFSLGVFLLKSGTSIPLHDHPGMHGMLKVLYGTVRISCMDKLDAGGGQRPRALPPEQQFEPPLQPREREAVRPGVLRSRAEYTEASGPCILTPHRDNLHQIDAVEGPAAFLDILAPPYDPDDGRDCHYYRVLEPVRPKEASSSACDLPREVWLLETPQADDFWCEGEPYPGPKVFP [ADO]”, the “solubility in G1/S (log2)” value (HeLa Kyoto [1]) was 0.474, the melting temperature (HeLa Kyoto [2]; cell cycle stage: G1/S) was 54.1 °C and the melting temperature (HeLa Kyoto [2]; cell cycle stage: mitosis) was 53.7 °C. For the same sequence, the “solubility change mitosis (log2)” value (HeLa Kyoto [3]) was 0.0512, the thermal stability score (HeLa Kyoto [4]; [5]) was -2.72 and the thermal stability score (HeLa Kyoto [4]; cell cycle stage: mitosis) was -3.58.

For “MPRPGSAQRWAAVAGRWGCRLLALLLLVPGPGGASEITFELPDNAKQCFYEDIAQGTKCTLEFQVITGGHYDVDCRLEDPDGKVLYKEMKKQYDSFTFTASKNGTYKFCFSNEFSTFTHKTVYFDFQVGEDPPLFPSENRVSALTQMESACVSIHEALKSVIDYQTHFRLREAQGRSRAEDLNTRVAYWSVGEALILLVVSIGQVFLLKSFFSDKRTTTTRVGS [TMED7]”, the “solubility in G1/S (log2)” value (HeLa Kyoto [1]) was -0.0739, the melting temperature (HeLa Kyoto [2]; cell cycle stage: G1/S) was 57.2 °C and the melting temperature (HeLa Kyoto [2]; cell cycle stage: mitosis) was 56.4 °C. The “solubility change mitosis (log2)” value (HeLa Kyoto [3]) was -0.174, the thermal stability score (HeLa Kyoto [4]; [5]) was 2.43 and the thermal stability score (HeLa Kyoto [4]; cell cycle stage: mitosis) was 0.528.

In the case of “MPRRKKKVKEVSESRNLEKKDVETTSSVSVKRKRRLEDAFIVISDSDGEEPKEENGLQKTKTKQSNRAKCLAKRKIAQMTEEEQFALALKMSEQEAREVNSQEEEEEELLRKAIAESLNSCRPSDASATRSRPLATGPSSQSHQEKTTDSGLTEGIWQLVPPSLFKGSHISQGNEAEEREEPWDHTEKTEEEPVSGSSGSWDQSSQPVFENVNVKSFDRCTGHSAEHTQCGKPQESTGRGSAFLKAVQGSGDTSRHCLPTLADAKGLQDTGGTVNYFWGIPFCPDGVDPNQYTKVILCQLEVYQKSLKMAQRQLLNKKGFGEPVLPRPPSLIQNECGQGEQASEKNECISEDMGDEDKEERQESRASDWHSKTKDFQESSIKSLKEKLLLEEEPTTSHGQSSQGIVEETSEEGNSVPASQSVAALTSKRSLVLMPESSAEEITVCPETQLSSSETFDLEREVSPGSRDILDGVRIIMADKEVGNKEDAEKEVAISTFSSSNQVSCPLCDQCFPPTKIERHAMYCNGLMEEDTVLTRRQKEAKTKSDSGTAAQTSLDIDKNEKCYLCKSLVPFREYQCHVDSCLQLAKADQGDGPEGSGRACSTVEGKWQQRLKNPKEKGHSEGRLLSFLEQSEHKTSDADIKSSETGAFRVPSPGMEEAGCSREMQSSFTRRDLNESPVKSFVSISEATDCLVDFKKQVTVQPGSRTRTKAGRGRRRKF [UIMC1]”, the “solubility in G1/S (log2)” value (HeLa Kyoto [1]) is reported as -0.219, the melting temperature (HeLa Kyoto [2]; cell cycle stage: G1/S) is reported as 51.5 °C and the melting temperature (HeLa Kyoto [2]; cell cycle stage: mitosis) is reported as 52.5 °C. For the same sequence, the “solubility change mitosis (log2)” value (HeLa Kyoto [3]) was 0.107, the thermal stability score (HeLa Kyoto [4]; [5]) was 1.12 and the thermal stability score (HeLa Kyoto [4]; cell cycle stage: mitosis) was 1.21.

With “MPSAKQRGSKGGHGAASPSEKGAHPSGGADDVAKKPPPAPQQPPPPPAPHPQQHPQQHPQNQAHGKGGHRGGGGGGGKSSSSSSASAAAAAAAASSSASCSRRLGRALNFLFYLALVAAAAFSGWCVHHVLEEVQQVRRSHQDFSRQREELGQGLQGVEQKVQSLQATFGTFESILRSSQHKQDLTEKAVKQGESEVSRISEVLQKLQNEILKDLSDGIHVVKDARERDFTSLENTVEERLTELTKSINDNIAIFTEVQKRSQKEINDMKAKVASLEESEGNKQDLKALKEAVKEIQTSAKSREWDMEALRSTLQTMESDIYTEVRELVSLKQEQQAFKEAADTERLALQALTEKLLRSEESVSRLPEEIRRLEEELRQLKSDSHGPKEDGGFRHSEAFEALQQKSQGLDSRLQHVEDGVLSMQVASARQTESLESLLSKSQEHEQRLAALQGRLEGLGSSEADQDGLASTVRSLGETQLVLYGDVEELKRSVGELPSTVESLQKVQEQVHTLLSQDQAQAARLPPQDFLDRLSSLDNLKASVSQVEADLKMLRTAVDSLVAYSVKIETNENNLESAKGLLDDLRNDLDRLFVKVEKIHEKV [CKAP4]” the “solubility in G1/S (log2)” value (HeLa Kyoto [1]) was 0.635, the melting temperature (HeLa Kyoto [2]; cell cycle stage: G1/S) was 52 °C and the melting temperature (HeLa Kyoto [2]; cell cycle stage: mitosis) was 52.4 °C. The “solubility change mitosis (log2)” value (HeLa Kyoto [3]) was 0.148, the thermal stability score (HeLa Kyoto [4]; [5]) was 5.49 and the thermal stability score (HeLa Kyoto [4]; cell cycle stage: mitosis) was 6.55.
